From patent US20150141617A1, “PRODUCTION AND PURIFICATION OF ACTIVE EUKARYOTIC FORMYLGLYCINEGENERATING ENZYME (FGE) VARIANTS” (Universität Bielefeld, priority 2013, published 2015)

Tests used:
[1] = target: T1, recombinant furin (rFurin) (Homo sapiens, UniProt P09958); test: In vitro furin cleavage assay; format: biochemical
T1 construct: purchased NEB
Description: CHO-FD11 cells stably expressing FGE-His6 or HT1080 cells were grown for 24 h, and cells and medium were harvested. For treatment with furin in vitro cell pellets were resuspended in HEPES pH 7.5 buffer containing 1 mM CaCl2 and 0.5% Triton X-100 and lysed in the absence of protease inhibitors by sonication on ice. Appropriate amounts of cell lysate and medium were incubated for 3 h at 25° C. with 4 units of furin (NEB) with or without 25 μM decanoyl-RVKR-CMK (Alexis biochemicals) as indicated in the figures. For in vivo treatment, HT1080 Tet-On cells were transiently transfected with pBI-FGE-HA and 4 h post-transfection, the medium was replenished with medium containing 20 ng/mL doxycycline and various concentrations of decanoyl-RVKR-CMK or only DMSO as a carrier control. The cells and medium were collected after 16 h of induction/treatment for further analysis. The samples were boiled in Laemmli buffer and analyzed by SDS-PAGE and western blotting with FGE antiserum.
In mammals, the proproteinconvertase family comprises nine enzymes that differ in their substrate specificity and tissue-specific expression and/or subcellular localization (17). Furin is the best characterized mammalian PC with a ubiquitous tissue distribution and it is the major convertase in the secretory pathway. To analyze the role of furin in the processing of FGE the inventors expressed FGE in cells that are deficient for furin. […] When cell homogenate and medium from CHO-FD11 cells stably expressing FGE-His were treated with commercially available recombinant furin (rFurin), almost half the amount of FGE was processed, as observed for both cells and medium (FIG. 12D). Using this in vitro furin cleavage assay, the inventors also examined whether endogenous intracellular FGE is susceptible to furin processing. Indeed, rFurin readily converted almost 90% of endogenous fl-FGE from untransfected HT1080 cells to the truncated form (FIG. 12E).
Although FGE is an ER resident protein, it lacks a canonical ER-retention motif. […] In this study, using the in vitro furin cleavage assay, the inventors assessed furin-mediated processing of the FGE-ERp44 covalent complex (FIG. 8). Homogenates, pre-treated with NEM (to prevent post-lysis disulfide shuffling), from HT1080 cells expressing either FGE alone or FGE plus myc-ERp44 together from a bi-directional promoter were incubated with rFurin and analyzed by SDS-PAGE under non-reducing conditions. Upon overexpression, intracellular FGE via its N-terminal cysteines (C50 and C52) forms covalently cross-bridged homodimers (FIG. 15, lane 1 and 2) and, additionally, FGE-ERp44 heterodimers when co-expressed with ERp44 (FIG. 15, lane 4 and 6) as previously observed (13). Removal of the N-terminus by furin cleavage should lead to a disappearance of the homo-/hetero-dimeric FGE forms, which serves as an indicator for accessibility of the furin cleavage motif in FGE.

[2] = tested on: cysteine-containing substrate peptide; test: In vitro FGE activity assay with conditioned media from CHO-FD11 cells; format: biochemical; details: 5 mM GSH vs 2 mM DTT, pH 9.3, conditioned media
Description: FGE activity was assayed using conditioned media that contained either secreted fl-FGE (obtained from CHO-FD FGE-His6 cells) or Δ72-FGE (obtained from CHO-FD Tet-On cells after transient co-transfection with pBI-FGE-HA and pIRES-Furin constructs). After expression for 48 h at 1% or 2.5% FCS containing DMEM, the medium was collected and centrifuged at 500×g for 5 min. The supernatant was analyzed by SDS-PAGE and western blotting and aliquots were directly used for activity testing.
The activity assay was performed in triplicates with three sets of conditioned media at pH 9.3 under standard conditions as described earlier (4) with some modifications; no BSA was added to the reaction mixture and 2 mM DTT or 5 mM GSH were used as reducing agents.
The inventors have recently shown that the N-terminal part of FGE (residues 34-68) is essential to activate sulfatases in vivo (12). By contrast, the N-terminal extension was not required for in vitro FGly-generating activity of purified secreted Δ72-FGE. […] To assess the physiological consequence of the N-terminal truncation by furin on the function of FGE, the inventors analyzed the FGly-generating activity of the processed and the unprocessed forms of secreted FGE in the presence of glutathione (GSH), a physiological reductant, or DTT serving as a control. […]

steroid sulfatase (STS) = test: Steroid sulfatase (STS) activity assay after co-expression with FGE in MSDi Tet-On cells; format: cell-based, human; details: vs STS expressed alone; doxycycline induction
Description: Activity assays of STS were performed as described earlier (15, 23). For western blot analysis, polyclonal antisera against FGE and steroid sulfatase were used as primary antibodies. Horseradish peroxidase-conjugated goat anti-rabbit antibody was used as secondary antibodies. Signals of steroid sulfatase are given as relative amounts, i.e. related to signal intensities detected in cells expressing steroid sulfatase only. Relative specific sulfatase activities were calculated, i.e. catalytic activity divided by the western blot signal (arbitrary units) and referred to that of cells expressing the sulfatase only (relative specific sulfatase activity=1). Absolute values for this reference are given in the legends.
Using this method the inventors examined whether the RYSR motif is required for the activation of sulfatases. cDNAs encoding steroid sulfatase (STS) alone or co-transfected along with cDNAs encoding RYSR-motif alanine variants of FGE in immortalized MSD Tet-On cells were transfected (FIG. 9C). Upon doxycycline induction, STS was barely active when expressed alone, whereas co-expression with FGE-wt increased the activity of STS approx. 50-fold, as observed previously (12).

T1 sequence (P09958 108-794): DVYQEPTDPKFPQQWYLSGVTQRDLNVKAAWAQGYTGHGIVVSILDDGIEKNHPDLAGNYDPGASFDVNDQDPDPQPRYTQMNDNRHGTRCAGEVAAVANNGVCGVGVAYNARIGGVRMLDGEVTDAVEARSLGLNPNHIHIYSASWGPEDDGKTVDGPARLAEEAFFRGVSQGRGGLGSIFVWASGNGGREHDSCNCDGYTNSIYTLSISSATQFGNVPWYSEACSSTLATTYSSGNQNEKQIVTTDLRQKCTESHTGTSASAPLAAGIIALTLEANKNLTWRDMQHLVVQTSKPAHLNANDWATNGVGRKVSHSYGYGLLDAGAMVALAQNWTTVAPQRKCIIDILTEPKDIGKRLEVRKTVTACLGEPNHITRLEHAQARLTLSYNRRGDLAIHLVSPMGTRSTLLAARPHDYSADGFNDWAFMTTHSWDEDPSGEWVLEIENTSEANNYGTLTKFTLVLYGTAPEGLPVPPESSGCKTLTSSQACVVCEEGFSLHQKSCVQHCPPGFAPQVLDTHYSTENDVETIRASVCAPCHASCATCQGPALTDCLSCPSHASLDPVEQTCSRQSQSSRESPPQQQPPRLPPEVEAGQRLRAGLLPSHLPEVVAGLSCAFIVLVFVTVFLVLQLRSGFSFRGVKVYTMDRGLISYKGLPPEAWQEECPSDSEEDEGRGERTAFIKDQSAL

accessibility of the furin-cleavage site in FGE monomer and homodimer ([1]; NEM-treated HT1080 Tet-On lysates): accessible to furin
furin cleavage of FGE in complex with ERp44 ([1]; NEM-treated HT1080 Tet-On lysates co-expressing myc-ERp44): protected from furin cleavage
amount of FGE processed by rFurin ([1]; cell homogenate and medium from CHO-FD11 cells, 3 h 25° C.): almost half
endogenous fl-FGE converted to the truncated form by rFurin ([1]; lysate of untransfected HT1080 cells): ~90%
B1: FGE: human wild type full length formylglycine generating enzyme with RYSR furin cleavage motif, SEQ ID NO:2 (protein)
chain: ADEFSQEAGTGAGAGSLAGSCGCGTPQRPGAHGSSAAAHRYSREANAPGPVPGERQLAHSKMVPIPAGVFTMGTDDPQIKQDGEAPARRVTIDAFYMDAYEVSNTEFEKFVNSTGYLTEAEKFGDSFVFEGMLSEQVKTNIQQAVAAAPWWLPVKGANWRHPEGPDSTILHRPDHPVLHVSWNDAVAYCTWAGKRLPTEAEWEYSCRGGLHNRLFPWGNKLQPKGQHYANIWQGEFPVTNTGEDGFQGTAPVDAFPPNGYGLYNIVGNAWEWTSDWWTVHHSVEETLNPKGPPSGKDRVKKGGSYMCHRSYCYRYRCAARSQNTPDSSASNLGFRCAADRLPTMDSGRGSHHHHHHH
modifications: cloned matured acitve full length FGE with 6x His tag on C-terminus
FGly-generating activity (% substrate turnover) in the presence of GSH normalized to that of DTT (100%) [2]: as active with GSH as with DTT
increase of STS activity on co-expression (steroid sulfatase (STS)): approx. 50 fold
